Laboratory results from the supplement of paper PMC9170038.

Test system: MS2 coat protein
Assay: apparent KD of MS2 coat protein; designed switch direction (-1 OFF switch, 1 ON switch): -1; higher = weaker reporter binding
Method in brief: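 RNA switches sharing common flanks were transcribed by stalled E. coli RNA polymerase on Illumina chips. A doubling series of SNAP-549-labelled MS2 coat protein, from 0.7 or 1.5 nM to 3 µM, was applied in Tris-HCl pH 7.5 buffer with KCl, MgCl2, BSA, DTT, tRNA and Tween-20. Each step lasted 0.8–1.5 h at the bottom of the series and 10–20 min at the top. Normalised cluster fluorescence was curve-fitted, giving apparent KD as the per-design median over clusters.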

[1] = input ligand: microRNA oligo, concentration not stated
[2] = Eterna round: R95, input ligand: microRNA oligo, concentration not stated
[3] = Eterna round: R95, input ligand: FMN 200 uM
[4] = Eterna round: R95, input ligand: none

Sequence	apparent KD of MS2 coat protein (input ligand: FMN 200 uM) [nM]	apparent KD of MS2 coat protein [1] [nM]	apparent KD of MS2 coat protein (input ligand: none) [nM]	apparent KD of MS2 coat protein [2] [nM]	apparent KD of MS2 coat protein [3] [nM]	apparent KD of MS2 coat protein [4] [nM]
GGUGCGUAUGUGAGGAUAUGCUGGUCCUUGGAUCAGCAGAAGGCACAUGAGGAUCACCCAUGUGGUGUCGUGCC [salish99_Bmod_Ex4_019] (Eterna round: R96, puzzle: Brourd's mod of Exclusion 4)	132	741	1050			
GGUAAAGGCCGAGGAUAUCGGAAAGGAAGUGUACGAGAAGGCGGCAAAAGAACAUGAGGAUCACCCAUGUGGGCCGAUCUUCCG [16th something] (Eterna round: R96, puzzle: Exclusion NG 1)	23.6	16.8	18			
CAGUACUGAGGAUAUACAUGAGGAUCACCCAUGUAAUAAUCGUAGGAAACUACGAUAUGUAGAAGGCAGUACUG [Eli x3 4.04] (Eterna round: R97, puzzle: Exclusion 3)	16		13.1			
GUAAAGUGAGGAUAUGGUAAAGUAAGUAUUUAGUAAGUAAUCCAGAAGGCACAUGAGGAUCACCCAUGUAAAUG [Mat - Exclusion 4 - D98] (puzzle: Exclusion 4)				29.2		
GACCUAUAGGUAGGAUAUCAUUGCGAUUAGCUAUGAGAAGGACCACAUGAGGAUCACCCAUGUCCUCCAAUUAACCAUAAGGUC [Fiskers ExNg1 - 5] (Eterna round: R96, puzzle: Exclusion NG 1)	98.7	34.6	40.9			
UUAGGCUGAAGAUCAAUUAAUUAACAUGAGGAUCACCCAUGUAAGGAUAUCAGCUCGAUUAGAGCUGAGAAGGUACAUGCAGCC [ExNG3/18-A1] (Eterna round: R96, puzzle: Exclusion NG 3)		102				
UGAGUGCUGCGAGGAUAUACAUGAGGAUCACCCAUGUUUAGGUGUGAGGCUUUGCCUCACACCAUGUAGAAGGCGCAGUACUCU [JL ENG2 1.07] (Eterna round: R96, puzzle: Exclusion NG 2)	16.8	8.96	12.8			
AAGAGCAAGGCAGGAUAUCACAUGAGGAUCACCCAUGUAUCCGAAAGAACAACGCCCGCGUUGUGUGAGAAGGGUCUAUGCAGG [Eternabot solution 10] (Eterna round: R96, puzzle: Exclusion NG 2)	370	61.6	75.8			
CAGUACAGAGGAUAUACAUGAGGAUCACCCAUGUGUUUCAGCAUCGAAAGAUGCGAAUGUAGAAGGCUGUACUG [jl-ex3-4.26 salish99 mod] (Eterna round: R97, puzzle: Exclusion 3)	313		26.5			
ACGAUGACCGAAAAGUGUCAACUGACAUGAGGAUCACCCAUGUAGGAUAUGGCUACGAAAAGUAGUCAGAAGGACAUGUCAUCA [Omei Exc(NG) 3 Av6] (Eterna round: R96, puzzle: Exclusion NG 3)	17.6	10.5	15.4			
ACAUGAGGAUCACCCAUGUGCCCAUCUAGCACAUGUCCUCGCUAGGAUAUGUAGGCCUCGAGGCCGCAGAAGGAGCUAAAAGAG [Atgequa] (Eterna round: R96, puzzle: Exclusion NG 3)	453	82.8	127			
UCGAGUGGUUAGGAUAUCAUUGGUGCAUAUCAUUGAGAAGGAACUACAUGAGGAUCACCCAUGUGGCAGUGAUA [Abezaso] (puzzle: Exclusion 6)				23.9		
UUUUAACAUGAGGAUCACCCAUGUCAGGAUAUGGUUUUUUUUUUUUUUUUUUUUUUUUCCAGAAGGGACAUUUU [My solution] (puzzle: Exclusion 1)				5.77	42.5	3.88
AGAUUAAAUGAGGAUAUCGUAUUGGAUAUAGUGCGAGAAGGCAUGACAUGAGGAUCACCCAUGUAGUGUUGGGA [JR_Ex6_Sub009] (Eterna round: R97, puzzle: Exclusion 6)	91.5		43.4			
UCGCUCCGUGUAGGAUAUCGCCGUACGAUGCGGCGAGAAGGACAUGAGGAUCACCCAUGUAUGUUAUUAUCACGCGUGGCGCAA [Design 62] (Eterna round: R96, puzzle: Exclusion NG 1)	21.3	11.3	16.5			
UGUGCGUAUGUGAGGAUAUGCUGGUCCUUGGAUCGGCAGAAGGCACAUGAGGAUCACCCAUGUGGUGUCGUACA [salish99_Bmod_ex4_086] (puzzle: Brourd's mod of Exclusion 4)				204		
GGUCAAGAGCAGCUCCGCGCUGCCAUUGACCGCUCAUUUACAUGAGGAUCACCCAUGUUUUUUGCUCGUCUUAUUAC [Somabi] (puzzle: Sensor v3, turn-off variant 2)				53.2	18.5	18.8
GCCAGAGCAGGAUAUUCAAAACCUCACAUGAGGAUCACCCAUGUGGCCGAAAGGCCGGGAGGAGAAGGGCUCUGGC [Fiskers Ex 5 - 1] (puzzle: Exclusion 5)				13.3	49.8	15.8
CUUUUGUGAGGAUAUUAGUAGUAAAUAAAUAAAAUUAUUACUGAGAAGGUACAUGAGGAUCACCCAUGUUCCUU [Salish 062 v21] (Eterna round: R97, puzzle: Exclusion 4)	12.8		19.9			
AUUAGAUGAGGAUAUACAUGGUUGCGGGUGCGGCAGGAUCUACAUGAGGAUCACCCAUGUAGAAGGCAUGUAUC [EX2 C.22] (Eterna round: R97, puzzle: Exclusion 2)	16.3		13.8			
UUCAUGUGAGGAUAUGUGUACUGCUUUCUGUUUAGAUGUACACAGAAGGCACAUGAGGAUCACCCAUGUAGUAC [Ex4 - 3 - 31] (puzzle: Exclusion 4)				33.8		
AGUACUAUCACGAAAGUGAUAGUACAAUAAGCUAGUGAAACAUGAGGAUCACCCAUGUCCUCAUUAGCUCGUCUUAU [JL turnoff v2 78] (Eterna round: R96, puzzle: Sensor v2, turn-off variant 2)	14	258	16.4			
AUCAUGUAAGGAUAUCUUACAUGUGACUUCGGUCACUGUCAAGAGAAGGUACAUGAGGAUCACCCAUGUAUGAC [Ex4-3: 51] (puzzle: Exclusion 4)				16.8		
AAAAUACAUGAGGAUCACCCAUGUCAGGAUAUGCUAAAAAAAAAAUUAAAAAAAAAAUGUAGAAGGGACUAAAA [Exclusion Z2] (Eterna round: R96, puzzle: Exclusion 1)		71.6				
GUCUUCAUGACAUGAGGAUCACCCAUGUGUUAUAUUUUUACUAAGGAUAUAUUUUUAAUGUUGAGAUAGAAGGUAGUUUCGGUC [JR_ExcNG3_Sub092] (Eterna round: R96, puzzle: Exclusion NG 3)		79.1				
AUGUUUGUAGUGAGGAUAUCGUUGAGGAAGAGGAUCGAGAAGGCACAUGAGGAUCACCCAUGUAAGAUGUGGUA [JR_BMOE4_Sub081] (puzzle: Brourd's mod of Exclusion 4)				61.2	69.9	55.5
